Measured values published in the supplement of paper PMC10724198.
± gives the standard deviation of the averaged measurements.

Key:
[1] = test system: Saccharomyces cerevisiae; assay: protein stability index of tFT-peptide fusion in deletion strain of DAS1 (PSI (0-1 scale)); higher = more stable (slower turnover)
Method: (§1)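 MPS profiling in S. cerevisiae of two library types built from selected 12-aa C-degron peptides (IN1, IN2, LN1, LN3, VN2, R1-R5, W1-W3, Atg1 and Rpa12 C-termini): saturation mutagenesis libraries and C-terminal +1 capping libraries (13 aa). Each peptide is fused to the C-terminus of a sfGFP-mCherry timer, after a GGGS linker. Cells are FACS-sorted into 8 mCherry/sfGFP bins and sequenced. PSI runs from 0 (unstable) to 1 (stable), measured once in wild type and in the das1Δ or doa10Δ background.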

[2] = test system: Saccharomyces cerevisiae; assay: protein stability index of tFT-peptide fusion in wild type (PSI (0-1 scale)); higher = more stable (slower turnover); settings: genetic background: wild type
Method: as §1

[3] = test system: Saccharomyces cerevisiae; assay: protein stability index of tFT-peptide fusion (C-terminal peptide) (PSI (0-1 scale)); higher = more stable (slower turnover); settings: temperature: 30 C
Method: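 MPS profiling in S. cerevisiae of the yeast C-terminome library: the last 12 aa of each annotated ORF are fused to the C-terminus of a sfGFP-mCherry timer, after a GGGS linker. Cells are FACS-sorted into 8 mCherry/sfGFP bins and deep-sequenced. PSI runs from 0 (unstable) to 1 (stable); wild type and das1Δ backgrounds, two technical replicates each.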

[4] = genetic background: das1 deletion
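For protein stability index of tFT-peptide fusion in deletion strain of DAS1 in this document: PSI is a weighted mean of each variant's read distribution over the sorted stability bins, computed only for variants having over 10 reads in total.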
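For protein stability index of tFT-peptide fusion in wild type in this document: PSI derived as read-weighted mean over the 8 sorting bins, only variants exceeding 10 total reads kept, mCherry placed adjacent to the peptide and sfGFP distal.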

| Sequence | protein stability index [1] | protein stability index [2] | protein stability index [3, 4] | protein stability index ([3]; genetic background: wild type) |
| --- | --- | --- | --- | --- |
| PDKRNHLIKPLN | 0.586 | 0.607 |  |  |
| PDKRNHLIKELN | 0.597 | 0.355 |  |  |
| RLYQPLPVQFLN | 0.586 | 0.068 |  |  |
| CTHCGYKFRTNN | 0.709 | 0.264 |  |  |
| PDKRNWLIKLLN | 0.675 | 0.0714 |  |  |
| HSLAASFWRVVG | 0.691 | 0.121 |  |  |
| FSMRWTFRYWVNP | 0.544 | 0.533 |  |  |
| RLIQPFPVQFLN | 0.778 | 0.09 |  |  |
| LTSMSARIAFDN [AAD14 C-terminal 12 aa] |  |  | 0.7219 ± 0.0034 | 0.699 ± 0.024 |
| LLSLLRVLKQPH [CSS1 C-terminal 12 aa] |  |  | 0.675 ± 0.023 | 0.66 ± 0.011 |
| KQPRFQLLFEFS [TTI2 C-terminal 12 aa] |  |  | 0.687 ± 0.011 | 0.6511 ± 0.0017 |
| SDMYDSKRLLYV [YPL035C C-terminal 12 aa] |  |  | 0.652 ± 0.033 | 0.537 ± 0.034 |
| RDRLVESCHFTQ [CIN4 C-terminal 12 aa] |  |  | 0.722 ± 0.023 | 0.706 ± 0.022 |
| KRSLRRNARKGL [ESC8 C-terminal 12 aa] |  |  | 0.721 ± 0.0077 | 0.687 ± 0.026 |
| SVTSKFKKYPYK [BET2 C-terminal 12 aa] |  |  | 0.7131 ± 0.0021 | 0.634 ± 0.026 |
| ITERLFNAALDD [YBR232C C-terminal 12 aa] |  |  | 0.7089 ± 0.0038 | 0.708 ± 0.018 |
| KLYKNSDFNSEK [RRG7 C-terminal 12 aa] |  |  | 0.7 ± 0.0014 | 0.694 ± 0.017 |
| KHGVSAVKRYLR [CBP1 C-terminal 12 aa] |  |  | 0.6765 ± 0.0054 | 0.68 ± 0.0089 |
| VYTSKTQYKFDI [YNR071C C-terminal 12 aa] |  |  | 0.6849 ± 0.0021 | 0.694 ± 0.062 |
| AQQNYRLWLSSV [ATG41 C-terminal 12 aa] |  |  | 0.682 ± 0.016 | 0.3264 ± 0.0023 |
| ESTTDAESKGSK [MRPL11 C-terminal 12 aa] |  |  | 0.676 ± 0.015 | 0.706 ± 0.11 |
| GKDITDQPCIDL [SSP2 C-terminal 12 aa] |  |  | 0.7054 ± 0.00083 | 0.725 ± 0.058 |
| LALNRDDPPDML [PEA2 C-terminal 12 aa] |  |  | 0.6989 ± 0.0011 | 0.755 ± 0.13 |
| YVIHLDQIDRDL [YLR269C C-terminal 12 aa] |  |  | 0.714 ± 0.0093 | 0.699 ± 0.028 |
| IFRDYFYKSPSP [PIG1 C-terminal 12 aa] |  |  | 0.739 ± 0.0098 | 0.763 ± 0.034 |
| LSVKWAVNTLMS [SRP101 C-terminal 12 aa] |  |  | 0.671 ± 0.014 | 0.568 ± 0.039 |
| KDEDEEADEDMK [PRE9 C-terminal 12 aa] |  |  | 0.711 ± 0.033 | 0.694 ± 0.014 |

| Sequence | protein stability index [1] | protein stability index [2] | protein stability index [3, 4] | protein stability index ([3]; genetic background: wild type) |
| --- | --- | --- | --- | --- |
| IVLPMIKDYLFS [HLJ1 C-terminal 12 aa] |  |  | 0.678 ± 0.018 | 0.702 ± 0.0079 |
| EKPEGKDTKTEE [CMK1 C-terminal 12 aa] |  |  | 0.685 ± 0.022 | 0.684 ± 0.051 |
| RDVTDWWESREI [CCZ1 C-terminal 12 aa] |  |  | 0.7553 ± 0.0041 | 0.7652 ± 0.0026 |
| TEPVKQVLGNKE [NMA1 C-terminal 12 aa] |  |  | 0.689 ± 0.012 | 0.675 ± 0.014 |
| EKKYSNNTNAIQ [CTI6 C-terminal 12 aa] |  |  | 0.68042 ± 0.00045 | 0.657 ± 0.024 |
| VVCMVVLLAVLS [VAM3 C-terminal 12 aa] |  |  | 0.148 ± 0.018 | 0.171 ± 0.012 |
| EWAEENADNVEW [RPS0A C-terminal 12 aa] |  |  | 0.7363 ± 0.0068 | 0.728 ± 0.028 |
| LVPEEEEETKDR [GRX5 C-terminal 12 aa] |  |  | 0.7214 ± 0.0068 | 0.698 ± 0.033 |
| VTTTFDKVHQDW [LEU1 C-terminal 12 aa] |  |  | 0.715 ± 0.017 | 0.714 ± 0.058 |
| ETRASCLLSRAF [YJL052C-A C-terminal 12 aa] |  |  | 0.6962 ± 0.0034 | 0.698 ± 0.015 |
| EYGGYGEYGNGS [RTG1 C-terminal 12 aa] |  |  | 0.6949 ± 0.0018 | 0.674 ± 0.0096 |
| WLPELALLCALD [LAS21 C-terminal 12 aa] |  |  | 0.614 ± 0.0098 | 0.633 ± 0.017 |
| LQALIIVQVMFS [YLL059C C-terminal 12 aa] |  |  | 0.128 ± 0.025 | 0.157 ± 0.013 |
| LFQPIIVKPLRS [YHR007C-A C-terminal 12 aa] |  |  | 0.599 ± 0.016 | 0.625 ± 0.023 |
| YKTEYPEWALRR [PUS9 C-terminal 12 aa] |  |  | 0.723 ± 0.01 | 0.717 ± 0.053 |
| RDLQSALVRQLL [CAD1 C-terminal 12 aa] |  |  | 0.718 ± 0.025 | 0.68 ± 0.021 |
| EWFYEKFLGNIF [DIP5 C-terminal 12 aa] |  |  | 0.747 ± 0.013 | 0.702 ± 0.014 |
| LQAVAVAVSTKK [FAS2 C-terminal 12 aa] |  |  | 0.659 ± 0.01 | 0.65 ± 0.033 |
| IDLSKKLSFYNY [GMH1 C-terminal 12 aa] |  |  | 0.685 ± 0.043 | 0.554 ± 0.0067 |
| MTDFSSSIIKGK [YCR090C C-terminal 12 aa] |  |  | 0.713 ± 0.031 | 0.677 ± 0.048 |
| LMPSASLQDFYG [VID27 C-terminal 12 aa] |  |  | 0.73 ± 0.014 | 0.726 ± 0.014 |
| IYDWAGEYPLAV [SHM2 C-terminal 12 aa] |  |  | 0.707 ± 0.026 | 0.737 ± 0.0049 |
| NRIVSLKDATSK [GLN4 C-terminal 12 aa] |  |  | 0.689 ± 0.021 | 0.685 ± 0.025 |
| KKKEDKGGLQRS [VHS3 C-terminal 12 aa] |  |  | 0.6842 ± 0.0022 | 0.697 ± 0.061 |
| RIEMDLALTEPL [ORC6 C-terminal 12 aa] |  |  | 0.691 ± 0.016 | 0.685 ± 0.015 |
| RLIGELGKLTED [YNL115C C-terminal 12 aa] |  |  | 0.683 ± 0.0088 | 0.701 ± 0.037 |
| ITSLKSDEYLVQ [RET2 C-terminal 12 aa] |  |  | 0.73 ± 0.046 | 0.724 ± 0.085 |

| Sequence | protein stability index [1] | protein stability index [2] | protein stability index [3, 4] | protein stability index ([3]; genetic background: wild type) |
| --- | --- | --- | --- | --- |
| QELLKLLENEKK [SLK19 C-terminal 12 aa] |  |  | 0.727 ± 0.029 | 0.726 ± 0.047 |
| HFYDRTNDLTNL [YNL144C C-terminal 12 aa] |  |  | 0.736 ± 0.024 | 0.68 ± 0.039 |
| KSPSITVNEFFH [RCN2 C-terminal 12 aa] |  |  | 0.698 ± 0.01 | 0.734 ± 0.021 |
| SYNDPALADFMP [NRE1 C-terminal 12 aa] |  |  | 0.7154 ± 0.007 | 0.744 ± 0.039 |
| KNLADIHKIMGF [MSW1 C-terminal 12 aa] |  |  | 0.6849 ± 0.00012 | 0.709 ± 0.052 |
| LSNIITLCRIIV [PEX34 C-terminal 12 aa] |  |  | 0.465 ± 0.0065 | 0.319 ± 0.0077 |
| VIKQQNHQTTKI [HKR1 C-terminal 12 aa] |  |  | 0.68 ± 0.037 | 0.705 ± 0.055 |
| ADIMEKVHKWFA [PSE1 C-terminal 12 aa] |  |  | 0.68931 ± 0.00046 | 0.6649 ± 0.0041 |
| ITGLKNNIQKCS [YER068C-A C-terminal 12 aa] |  |  | 0.688 ± 0.0055 | 0.253 ± 0.014 |
| KTFKLLTNKWIH [YAR009C C-terminal 12 aa] |  |  | 0.704 ± 0.018 | 0.587 ± 0.014 |
| VGRKPRLPKGKL [YCL002C C-terminal 12 aa] |  |  | 0.758 ± 0.021 | 0.842 ± 0.024 |
| RSASNRHVDYFL [PPG1 C-terminal 12 aa] |  |  | 0.6933 ± 0.0059 | 0.698 ± 0.033 |
| NRHSYCFSNLAP [YOL085W-A C-terminal 12 aa] |  |  | 0.739 ± 0.0025 | 0.691 ± 0.023 |
| LELLLAADYLSI [ELC1 C-terminal 12 aa] |  |  | 0.698 ± 0.034 | 0.682 ± 0.049 |
| LKDEKRGDNVLA [THS1 C-terminal 12 aa] |  |  | 0.6983 ± 0.0068 | 0.67 ± 0.018 |
| VLESFLAPMVNQ [BET5 C-terminal 12 aa] |  |  | 0.688 ± 0.0073 | 0.71 ± 0.061 |
| YYYKNSYWPSHI [VPS36 C-terminal 12 aa] |  |  | 0.6935 ± 0.0058 | 0.701 ± 0.027 |
| YGRGETPKHAIE [DPH1 C-terminal 12 aa] |  |  | 0.692 ± 0.0084 | 0.713 ± 0.062 |
| KGARSRFQKSYR [RPS16A C-terminal 12 aa] |  |  | 0.707 ± 0.011 | 0.7188 ± 0.0055 |
| LEQGFKVVSAKE [YCS4 C-terminal 12 aa] |  |  | 0.697 ± 0.057 | 0.6812 ± 0.0067 |
| ELQDALNTELLF [VAC17 C-terminal 12 aa] |  |  | 0.7157 ± 0.0042 | 0.699 ± 0.0099 |
| AWVPPTEDDSDE [DPH5 C-terminal 12 aa] |  |  | 0.698 ± 0.018 | 0.665 ± 0.0093 |
| TAEPNRNVNQMP [YDL218W C-terminal 12 aa] |  |  | 0.678 ± 0.017 | 0.662 ± 0.013 |
| DYKTKRNPSVLH [ISU2 C-terminal 12 aa] |  |  | 0.6878 ± 0.0024 | 0.7106 ± 0.0056 |
| LRSKSRLRGSHT [AHC1 C-terminal 12 aa] |  |  | 0.73 ± 0.014 | 0.654 ± 0.038 |
| IPAKKTKISLDY [ELP4 C-terminal 12 aa] |  |  | 0.6845 ± 0.0032 | 0.677 ± 0.018 |
